B1: Ubiquitin domain-containing protein DSK2 (Saccharomyces cerevisiae), P48510 (parent)
chain: MSLNIHIKSGQDKWEVNVAPESTVLQFKEAINKANGIPVANQRLIYSGKILKDDQTVESYHIQDGHSVHLVKSQPKPQTASAAGANNATATGAAAGTGATPNMSSGQSAGFNPLADLTSARYAGYLNMPSADMFGPDGGALNNDSNNQDELLRMMENPIFQSQMNEMLSNPQMLDFMIQSNPQLQAMGPQARQMLQSPMFRQMLTNPDMIRQSMQFARMMDPNAGMGSAGGAASAFPAPGGDAPEEGSNTNTTSSSNTGNNAGTNAGTNAGANTAANPFASLLNPALNPFANAGNAASTGMPAFDPALLASMFQPPVQASQAEDTRPPEERYEHQLRQLNDMGFFDFDRNVAALRRSGGSVQGALDSLLNGDV
partner: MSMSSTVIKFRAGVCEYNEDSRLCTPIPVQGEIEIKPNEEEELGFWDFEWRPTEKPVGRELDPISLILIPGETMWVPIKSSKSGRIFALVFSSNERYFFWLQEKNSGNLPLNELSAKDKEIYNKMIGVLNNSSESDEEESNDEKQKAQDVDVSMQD
B2: Ubiquitin domain-containing protein DSK2 (Saccharomyces cerevisiae), P48510 (parent)
chain: B1 chain
partner: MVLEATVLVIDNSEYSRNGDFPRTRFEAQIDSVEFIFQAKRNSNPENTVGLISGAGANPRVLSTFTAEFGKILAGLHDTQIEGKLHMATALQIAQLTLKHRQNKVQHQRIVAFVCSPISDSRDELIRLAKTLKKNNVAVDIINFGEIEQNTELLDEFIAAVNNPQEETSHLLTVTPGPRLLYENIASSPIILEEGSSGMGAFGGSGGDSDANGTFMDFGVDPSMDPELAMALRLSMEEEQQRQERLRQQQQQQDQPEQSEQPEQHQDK
B3: 26S proteasome non-ATPase regulatory subunit 4 homolog (Arabidopsis thaliana (Mouse-ear cress)), P55034 (parent)
chain: MVLEATMICIDNSEWMRNGDYSPSRLQAQTEAVNLLCGAKTQSNPENTVGILTMAGKGVRVLTTPTSDLGKILACMHGLDVGGEINLTAAIQIAQLALKHRQNKNQRQRIIVFAGSPIKYEKKALEIVGKRLKKNSVSLDIVNFGEDDDEEKPQKLEALLTAVNNNDGSHIVHVPSGANALSDVLLSTPVFTGDEGASGYVSAAAAAAAAGGDFDFGVDPNIDPELALALRVSMEEERARQEAAAKKAADEAGQKDKDGDTASASQETVARTTDKNAEPMDEDSALLDQAIAMSVGDVNMSEAADEDQDLALALQMSMSGEESSEATGAGNNLLGNQAFISSVLSSLPGVDPNDPAVKELLASLPDESKRTEEEESSSKKGEDEKK
B4: Ubiquitin domain-containing protein DSK2b (Arabidopsis thaliana (Mouse-ear cress)), Q9SII8 (parent)
chain: MGGEGDSSQPQSGEGEAVAVNIRCSNGTKFSVKTSLDSTVESFKELVAQSSDVPANQQRLIYKGRILKDDQTLLSYGLQADHTIHMVRGSAPSSAPPPAPAASQTTAPSVTRGVGSDNSSNLGGASPGESLFPGLGFNPLGGGNAMSGLFGAGLPDLVQTQQQLAQNPNMIRDMMNTPAIQNLMNNPEFMRSMIMNNPQMRELVDRNPELGHVLNDPSILRQTLEAARNPELMREMMRNTDRAMSNIESMPEGFNMLRRMYENVQEPLMNATTMSGNAGNNTGSNPFAALLGNQGVTTQGSDASNNSSTPNAGTGTIPNANPLPNPWGATGGQTTAPGRTNVGGDARSPGLGGLGGLGSLGGLGGLGMLGADSPLGATPDASQLSQLLQNPAISQMMQSVFSNPQYMNQLMSLNPQLRSMLDSNPQLREMMQNPDFLRQFSSPEMMQQMMTLQQSLSQNRNTASQDAGQTGAATGNNGGLDLLMNMFGSLGAGGLSGTNQSNVPPEERYATQLQQLQEMGFYDRAENIRALLATNGNVNAAVERLLGSIGQ
B5: 26S proteasome non-ATPase regulatory subunit 4 (Homo sapiens), P55036 (parent)
chain: MVLESTMVCVDNSEYMRNGDFLPTRLQAQQDAVNIVCHSKTRSNPENNVGLITLANDCEVLTTLTPDTGRILSKLHTVQPKGKITFCTGIRVAHLALKHRQGKNHKMRIIAFVGSPVEDNEKDLVKLAKRLKKEKVNVDIINFGEEEVNTEKLTAFVNTLNGKDGTGSHLVTVPPGPSLADALISSPILAGEGGAMLGLGASDFEFGVDPSADPELALALRVSMEEQRQRQEEEARRAAAASAAEAGIATTGTEDSDDALLKMTISQQEFGRTGLPDLSSMTEEEQIAYAMQMSLQGAEFGQAESADIDASSAMDTSEPAKEEDDYDVMQDPEFLQSVLENLPGVDPNNEAIRNAMGSLASQATKDGKKDKKEEDKK
B6: UV excision repair protein RAD23 (Saccharomyces cerevisiae), P32628 (parent)
chain: MVSLTFKNFKKEKVPLDLEPSNTILETKTKLAQSISCEESQIKLIYSGKVLQDSKTVSECGLKDGDQVVFMVSQKKSTKTKVTEPPIAPESATTPGRENSTEASPSTDASAAPAATAPEGSQPQEEQTATTERTESASTPGFVVGTERNETIERIMEMGYQREEVERALRAAFNNPDRAVEYLLMGIPENLRQPEPQQQTAAAAEQPSTAATTAEQPAEDDLFAQAAQGGNASSGALGTTGGATDAAQGGPPGSIGLTVEDLLSLRQVVSGNPEALAPLLENISARYPQLREHIMANPEVFVSMLLEAVGDNMQDVMEGADDMVEGEDIEVTGEAAAAGLGQGEGEGSFQVDYTPEDDQAISRLCELGFERDLVIQVYFACDKNEEAAANILFSDHAD
B7: 26S proteasome non-ATPase regulatory subunit 4 (Homo sapiens), P55036 (parent)
chain: B5 chain
partner: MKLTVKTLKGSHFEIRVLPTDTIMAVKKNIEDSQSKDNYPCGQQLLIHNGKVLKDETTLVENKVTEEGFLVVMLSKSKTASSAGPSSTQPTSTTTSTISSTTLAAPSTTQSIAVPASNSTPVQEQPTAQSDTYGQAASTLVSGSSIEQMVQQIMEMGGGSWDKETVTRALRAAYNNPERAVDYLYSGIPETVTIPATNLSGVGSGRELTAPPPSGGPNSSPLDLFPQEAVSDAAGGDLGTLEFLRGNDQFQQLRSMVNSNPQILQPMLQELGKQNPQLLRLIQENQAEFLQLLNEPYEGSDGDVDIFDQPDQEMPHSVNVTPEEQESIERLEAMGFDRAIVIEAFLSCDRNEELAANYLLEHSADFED
B8: 26S proteasome regulatory subunit RPN10 (Saccharomyces cerevisiae), P38886 (parent)
chain: B2 partner
partner: B4 chain
B9: DNA damage-inducible protein 1 (Saccharomyces cerevisiae), P40087 (parent)
chain: MDLTISNELTGEIYGPIEVSEDMALTDLIALLQADCGFDKTKHDLYYNMDILDSNRTQSLKELGLKTDDLLLIRGKISNSIQTDAATLSDEAFIEQFRQELLNNQMLRSQLILQIPGLNDLVNDPLLFRERLGPLILQRRYGGYNTAMNPFGIPQDEYTRLMANPDDPDNKKRIAELLDQQAIDEQLRNAIEYTPEMFTQVPMLYINIEINNYPVKAFVDTGAQTTIMSTRLAKKTGLSRMIDKRFIGEARGVGTGKIIGRIHQAQVKIETQYIPCSFTVLDTDIDVLIGLDMLKRHLACVDLKENVLRIAEVETSFLSEAEIPKSFQEGLPAPTSVTTSSDKPLTPTKTSSTLPPQPGAVPALAPRTGMGPTPTGRSTAGATTATGRTFPEQTIKQLMDLGFPRDAVVKALKQTNGNAEFAASLLFQ

Variants of: B1
Conditions: with rpn13_yeast RPN13, O13563

Row | effect of a mutation on the interaction | Variant
1 | disrupting interaction strength | L44A;I45A
2 | decreasing interaction strength | V71A

Variants of: B1
Conditions: with rpn13_yeast RPN13, O13563
Remark: another data set of the same source

Row | effect of a mutation on the interaction | Variant
3 | decreasing interaction | V71A

Variants of: B2
Conditions: with rpn10_yeast RPN10, P38886

Row | effect of a mutation on the interaction | Variant
4 | with no effect | L44A
5 | disrupting interaction strength | L44A;I45A
6 | with no effect | I45A
7 | disrupting interaction strength | L70A;V71A
8 | with no effect | L70A
9 | with no effect | V71A

Variants of: B2
Conditions: with rpn10_yeast RPN10, P38886
Remark: another data set of the same source

Row | effect of a mutation on the interaction | Variant
10 | disrupting interaction | L70A
11 | disrupting interaction | V71A

Variants of: B3
Conditions: with rd23b_human RAD23B
Target sequence in this assay (P54727 whole entry): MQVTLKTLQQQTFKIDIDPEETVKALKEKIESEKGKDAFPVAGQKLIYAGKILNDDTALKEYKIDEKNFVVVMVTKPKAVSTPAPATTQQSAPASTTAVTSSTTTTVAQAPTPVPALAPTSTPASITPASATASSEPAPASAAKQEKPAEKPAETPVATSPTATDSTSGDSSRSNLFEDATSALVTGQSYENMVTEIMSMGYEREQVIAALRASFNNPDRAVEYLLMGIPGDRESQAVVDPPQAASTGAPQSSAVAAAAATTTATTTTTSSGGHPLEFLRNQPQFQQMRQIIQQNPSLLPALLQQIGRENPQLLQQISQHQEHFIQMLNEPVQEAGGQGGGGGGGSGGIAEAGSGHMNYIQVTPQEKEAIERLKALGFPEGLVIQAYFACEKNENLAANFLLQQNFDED

Row | effect of a mutation on the interaction | Variant
12 | decreasing interaction strength | L226D;A227D;L228D;A229D;L230D;L286N;L287N;Q289N;A290D
13 | disrupting interaction strength | L226D;A227D;L228D;A229D;L230D;L310N;A311N;L312N;A313D;L314N
14 | disrupting interaction strength | L286N;L287N;Q289N;A290D;L310N;A311N;L312N;A313D;L314N
15 | with no effect | L286N;L287N;Q289N;A290D
16 | with no effect | L226D;A227D;L228D;A229D;L230D
17 | disrupting interaction strength | L310N;A311N;L312N;A313D;L314N

Variants of: B3
Conditions: with dsk2_yeast DSK2, P48510

Row | effect of a mutation on the interaction | Variant
18 | with no effect | L286N;L287N;Q289N;A290D;L310N;A311N;L312N;A313D;L314N
19 | with no effect | L286N;L287N;Q289N;A290D
20 | disrupting interaction strength | L226D;A227D;L228D;A229D;L230D
21 | with no effect | L310N;A311N;L312N;A313D;L314N

Variants of: B3
Conditions: with ubql2_human UBQLN2, Q9UHD9
Target sequence in this assay (Q9UHD9 whole entry): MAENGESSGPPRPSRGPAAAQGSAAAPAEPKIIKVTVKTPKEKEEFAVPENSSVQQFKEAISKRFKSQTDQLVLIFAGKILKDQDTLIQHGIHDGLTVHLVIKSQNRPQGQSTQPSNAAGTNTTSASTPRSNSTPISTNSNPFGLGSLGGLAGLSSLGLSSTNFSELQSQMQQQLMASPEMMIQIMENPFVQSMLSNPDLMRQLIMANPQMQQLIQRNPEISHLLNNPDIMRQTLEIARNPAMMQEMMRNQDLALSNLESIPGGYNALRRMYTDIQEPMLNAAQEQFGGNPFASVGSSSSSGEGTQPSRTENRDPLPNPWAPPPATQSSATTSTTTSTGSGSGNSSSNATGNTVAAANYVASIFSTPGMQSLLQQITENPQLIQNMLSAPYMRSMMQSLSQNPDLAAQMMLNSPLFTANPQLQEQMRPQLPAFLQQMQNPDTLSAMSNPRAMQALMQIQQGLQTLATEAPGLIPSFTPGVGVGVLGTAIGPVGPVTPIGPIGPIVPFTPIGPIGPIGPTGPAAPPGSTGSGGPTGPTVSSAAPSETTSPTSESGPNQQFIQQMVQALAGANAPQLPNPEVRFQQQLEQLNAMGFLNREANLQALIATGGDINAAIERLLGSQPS

Row | effect of a mutation on the interaction | Variant
22 | with no effect | L286N;L287N;Q289N;A290D;L310N;A311N;L312N;A313D;L314N
23 | with no effect | L286N;L287N;Q289N;A290D
24 | disrupting interaction strength | L226D;A227D;L228D;A229D;L230D
25 | with no effect | L310N;A311N;L312N;A313D;L314N

Variants of: B4
Conditions: with rpn13_arath RPN13, O48726
Chain of rpn13_arath RPN13, O48726 (O48726 whole entry): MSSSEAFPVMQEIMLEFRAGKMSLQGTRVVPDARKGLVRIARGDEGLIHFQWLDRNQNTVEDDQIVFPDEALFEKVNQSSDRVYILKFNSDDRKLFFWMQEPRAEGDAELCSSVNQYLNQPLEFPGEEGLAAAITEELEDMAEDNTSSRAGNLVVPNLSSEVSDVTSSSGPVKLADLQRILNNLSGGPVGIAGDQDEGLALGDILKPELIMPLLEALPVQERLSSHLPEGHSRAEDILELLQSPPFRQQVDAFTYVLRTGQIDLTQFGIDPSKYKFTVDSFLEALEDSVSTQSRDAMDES

Row | effect of a mutation on the interaction | Variant
26 | disrupting interaction | I61A

Variants of: B5
Conditions: with ubql1_human UBQLN1, Q9UMX0
Chain of ubql1_human UBQLN1, Q9UMX0 (Q9UMX0 whole entry): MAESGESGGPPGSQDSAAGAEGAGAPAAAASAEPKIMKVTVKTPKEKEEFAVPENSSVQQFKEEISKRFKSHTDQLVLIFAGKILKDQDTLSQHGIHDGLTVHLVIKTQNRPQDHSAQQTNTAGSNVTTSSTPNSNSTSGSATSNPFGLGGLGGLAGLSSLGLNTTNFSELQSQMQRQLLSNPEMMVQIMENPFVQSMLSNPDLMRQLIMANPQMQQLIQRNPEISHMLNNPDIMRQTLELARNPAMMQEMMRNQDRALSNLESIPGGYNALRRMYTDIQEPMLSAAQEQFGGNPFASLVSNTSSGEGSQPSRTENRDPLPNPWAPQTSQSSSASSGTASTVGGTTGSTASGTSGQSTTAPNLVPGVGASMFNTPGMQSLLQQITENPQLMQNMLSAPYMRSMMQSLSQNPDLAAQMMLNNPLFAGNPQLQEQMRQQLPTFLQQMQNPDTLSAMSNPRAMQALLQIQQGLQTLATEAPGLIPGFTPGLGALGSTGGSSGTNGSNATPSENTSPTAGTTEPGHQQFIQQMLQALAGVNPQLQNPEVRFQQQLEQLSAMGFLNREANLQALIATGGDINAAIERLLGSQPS

Row | effect of a mutation on the interaction | Variant
27 | disrupting interaction strength | I287N;A288N;Y289N;A290N;M291N

Variants of: B5
Conditions: with ubql2_human UBQLN2, Q9UHD9
Target sequence in this assay (Q9UHD9 whole entry): as the sequence (Q9UHD9 whole entry) above

Row | effect of a mutation on the interaction | Variant
28 | disrupting interaction strength | I287N;A288N;Y289N;A290N;M291N

Variants of: B5
Conditions: with dsk2_yeast DSK2, P48510

Row | effect of a mutation on the interaction | Variant
29 | with no effect | I287N;A288N;Y289N;A290N;M291N

Variants of: B5
Conditions: with rd23b_human RAD23B
Target sequence in this assay (P54727 whole entry): as the sequence (P54727 whole entry) above

Row | effect of a mutation on the interaction | Variant
30 | disrupting interaction strength | I287N;A288N;Y289N;A290N;M291N

Variants of: B6
Conditions: with ubc_human UBC
Target sequence in this assay (P0CG48 whole entry, looked up): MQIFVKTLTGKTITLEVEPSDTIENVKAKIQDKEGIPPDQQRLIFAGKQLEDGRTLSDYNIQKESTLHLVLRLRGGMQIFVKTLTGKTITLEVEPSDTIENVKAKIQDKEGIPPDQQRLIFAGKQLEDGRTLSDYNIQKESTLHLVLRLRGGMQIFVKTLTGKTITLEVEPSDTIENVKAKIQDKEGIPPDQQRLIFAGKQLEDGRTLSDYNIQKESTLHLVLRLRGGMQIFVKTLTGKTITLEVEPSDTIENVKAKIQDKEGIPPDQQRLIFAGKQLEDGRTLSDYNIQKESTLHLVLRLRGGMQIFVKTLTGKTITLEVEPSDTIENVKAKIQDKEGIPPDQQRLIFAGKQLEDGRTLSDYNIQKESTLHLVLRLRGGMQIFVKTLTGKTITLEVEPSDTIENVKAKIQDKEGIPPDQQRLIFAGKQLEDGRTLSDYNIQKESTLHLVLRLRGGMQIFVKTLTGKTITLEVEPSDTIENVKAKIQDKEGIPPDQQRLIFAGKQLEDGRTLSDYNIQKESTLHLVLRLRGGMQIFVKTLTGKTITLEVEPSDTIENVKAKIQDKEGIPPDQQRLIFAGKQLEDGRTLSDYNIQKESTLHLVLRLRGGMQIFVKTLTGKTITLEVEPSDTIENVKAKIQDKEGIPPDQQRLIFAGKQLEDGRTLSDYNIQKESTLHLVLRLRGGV

Row | effect of a mutation on the interaction | Variant
31 | with no effect | L367A;G368A;F369A
32 | disrupting interaction strength | M158A;G159A;Y160A
33 | disrupting interaction strength | M158A;G159A;Y160A;L367A;G368A;F369A

Variants of: B6
Conditions: with ubc_human UBC
Remark: another data set of the same source
Target sequence in this assay (P0CG48 whole entry, looked up): as above

Row | effect of a mutation on the interaction | Variant
34 | decreasing interaction strength | M158A;G159A;Y160A

Variants of: B7
Conditions: with rd23a_arath RAD23A

Row | effect of a mutation on the interaction | Variant
35 | disrupting interaction strength | L216N;A217N;L218N;A219N;L220N;I287N;A288N;Y289N;A290N;M291N
36 | with no effect | L216N;A217N;L218N;A219N;L220N
37 | disrupting interaction strength | I287N;A288N;Y289N;A290N;M291N

Variants of: B8
Conditions: with dsk2b_arath DSK2B

Row | effect of a mutation on the interaction | Variant
38 | disrupting interaction strength | L228N;A229N;M230N;A231N;L232N

Variants of: B9
Conditions: with ubc_human UBC
Target sequence in this assay (P0CG48 whole entry, looked up): as above

Row | effect of a mutation on the interaction | Variant
39 | disrupting interaction strength | L401A;G402A

Variants of: B9
Conditions: with ubc_human UBC
Remark: another data set of the same source
Target sequence in this assay (P0CG48 whole entry, looked up): as above

Row | effect of a mutation on the interaction | Variant
40 | decreasing interaction strength | L401A;G402A

Reference: IntAct's records for PubMed 20059542
